Experiments:
[1] = target: Nucleolysin TIA-1 (endogenous mouse TIA1) (mouse) (UniProt P52912); experiment: TIA1 IP-MS, tau KO 1 cortex
[2] = target: Nucleolysin TIA-1 (endogenous mouse TIA1) (mouse) (UniProt P52912); experiment: TIA1 IP-MS, WT2 cortex
[3] = target: Nucleolysin TIA-1 (endogenous mouse TIA1) (mouse) (UniProt P52912); experiment: TIA1 IP-MS, WT3 cortex
[4] = target: Nucleolysin TIA-1 (endogenous mouse TIA1) (mouse) (UniProt P52912); experiment: TIA1 IP-MS, tau KO 2 cortex
[5] = target: Nucleolysin TIA-1 (endogenous mouse TIA1) (mouse) (UniProt P52912); experiment: TIA1 IP-MS, tau KO 3 cortex
[6] = target: Nucleolysin TIA-1 (endogenous mouse TIA1) (mouse) (UniProt P52912); experiment: TIA1 IP-MS, WT1 cortex

Chain of UniProt P52912 (P52912 whole entry): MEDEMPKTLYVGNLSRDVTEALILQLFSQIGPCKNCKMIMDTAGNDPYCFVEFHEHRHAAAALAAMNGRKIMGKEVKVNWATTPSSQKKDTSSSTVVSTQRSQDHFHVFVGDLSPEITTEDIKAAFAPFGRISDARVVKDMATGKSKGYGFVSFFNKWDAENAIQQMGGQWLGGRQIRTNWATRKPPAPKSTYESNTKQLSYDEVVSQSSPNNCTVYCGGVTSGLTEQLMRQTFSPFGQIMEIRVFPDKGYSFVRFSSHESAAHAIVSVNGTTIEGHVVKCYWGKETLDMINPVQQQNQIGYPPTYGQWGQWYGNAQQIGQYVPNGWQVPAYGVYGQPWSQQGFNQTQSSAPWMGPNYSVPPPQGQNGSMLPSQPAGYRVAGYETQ

total ion current (normalized to TIA1 = 1000) [1]	total ion current (normalized to TIA1 = 1000) [2]	total ion current (normalized to TIA1 = 1000) [3]	total ion current (normalized to TIA1 = 1000) [4]	total ion current (normalized to TIA1 = 1000) [5]	total ion current (normalized to TIA1 = 1000) [6]	Substance
0	121	0	0	0	0	Isoform 2 of Alpha-adducin (from UniProt Q9QYC0 1-632)
0	346	0	32.6	0	0	Isoform 2 of Beta-adducin (from UniProt Q9QYB8 1-562)
0	0	0	0	0	3.53	Isoform 2 of Clathrin light chain B (from UniProt Q6IRU5 1-211)
0	80.5	0	28.4	0	0	Isoform 2 of Cytosol aminopeptidase (from UniProt Q9CPY7 1-488)
0	282	0	97.1	0	0	Isoform 2 of Hepatoma-derived growth factor-related protein 2 (from UniProt Q3UMU9 1-667)
0	42.5	48.2	39.6	0	0	Isoform 2 of Heterogeneous nuclear ribonucleoprotein F (from UniProt Q9Z2X1 1-395)
0	64.7	37.6	59	0	0	Isoform 2 of MICOS complex subunit Mic60 (from UniProt Q8CAQ8 34-746)
0	20.1	0	31.4	0	0	Isoform 2 of Phosphatidylinositol-binding clathrin assembly protein (from UniProt Q7M6Y3 2-597)
0	136	0	99.8	0	0	Isoform 2 of Plasminogen activator inhibitor 1 RNA-binding protein (from UniProt Q9CY58 1-392)
0	94.7	75.6	52.7	0	0	Isoform 2 of Septin-4 (from UniProt P28661 1-459)
0	46.1	0	43	0	0	Isoform 2 of Sideroflexin-3 (from UniProt Q91V61 1-288)
0	48.2	0	0	0	0	Isoform 4 of Phosphatase and actin regulator 1 (from UniProt Q2M3X8 1-649)
0	108	240	13	0	0	Isoform A1-I of V-type proton ATPase 116 kDa subunit a isoform 1 (from UniProt Q9Z1G4 1-838)
0	372	515	190	0	0	Isoform A of Cytosolic acyl coenzyme A thioester hydrolase (from UniProt Q91V12 1-338)
0	159	68.8	248	0	0	Isoform B of AP-2 complex subunit alpha-1 (from UniProt P17426 1-955)
0	148	0	13	0	0	Isoform Beta-II of Protein kinase C beta type (from UniProt P68404 2-673)

The next lines start with the substance.

Substance	total ion current (normalized to TIA1 = 1000) [1]	total ion current (normalized to TIA1 = 1000) [2]	total ion current (normalized to TIA1 = 1000) [3]	total ion current (normalized to TIA1 = 1000) [4]	total ion current (normalized to TIA1 = 1000) [5]	total ion current (normalized to TIA1 = 1000) [6]
Isoform 2 of ATP-dependent 6-phosphofructokinase, muscle type (from UniProt P47857 1-850)	0	62.9	36.3	75.8	0	0
Isoform 2 of C-terminal-binding protein 1 (from UniProt O88712 1-430)	0	65.7	49.3	26.6	0	0
Isoform 2 of Focal adhesion kinase 1 (from UniProt P34152 2-1083)	0	0	84.3	130	0	0
Isoform 2 of Gelsolin (from UniProt P13020 1-731)	144	0	0	0	0	0
Isoform 2 of Heterogeneous nuclear ribonucleoprotein Q (from UniProt Q7TMK9 2-562)	19.8	249	0	48.5	0	14.7
Isoform 2 of Homer protein homolog 1 (from UniProt Q9Z2Y3 1-370)	0	37.8	137	59.6	0	0
Isoform 2 of NAD-dependent protein deacetylase sirtuin-2 (from UniProt Q8VDQ8 1-352)	0	175	48.2	0	0	0
Isoform 2 of Paraspeckle component 1 (from UniProt Q8R326 1-466)	0	98.3	0	0	239	0
Isoform 2 of Protein-L-isoaspartate(D-aspartate)-O-methyltransferase (from UniProt P23506 2-228)	0	98.7	8.56	91.6	0	0
Isoform 2 of Sarcoplasmic/endoplasmic reticulum calcium ATPase 2 (from UniProt O55143 1-998)	0	36.6	0	21.5	0	0
Isoform 2 of Sodium-driven chloride bicarbonate exchanger (from UniProt Q5DTL9 1-1088)	0	269	0	0	0	0

Source: patent US20190142860A1, “NUCLEIC ACID BASED TIA-1 INHIBITORS” (Aquinnah Pharmaceuticals, Inc., priority 2015, published 2019)
